Results from US20260226143A1.

Target: soluble Aβ oligomers (human)
Assay: cell-based or functional assay

human IgG isotype control antibody showed a Mean (Aβ spots per neuron), Isotype Control 1:50 (Aβ spots per neuron) of 58.7.
